The source of these data is patent US20260109763A1 (DENALI THERAPEUTICS, published 2026).

The target in experiment [1] is T1, human PILRA G78 extracellular domain (recombinant hPILRA ECD) (human, UniProt Q9UKJ1 20-197).
T1 construct: also called hPILRA G78
The experiment is described as follows: SPR.

Experiment [2] deals with T2, human PILRA R78 extracellular domain (recombinant) (human, UniProt Q9UKJ1 20-197).
T2 construct: also called hPILRA R78
The experiment is described as follows: SPR. (In general: In SPR one partner is held on a chip, and binding of the other changes the refractive index at the surface.)
Target sequence in this assay (Q9UKJ1 20-197 limits assumed): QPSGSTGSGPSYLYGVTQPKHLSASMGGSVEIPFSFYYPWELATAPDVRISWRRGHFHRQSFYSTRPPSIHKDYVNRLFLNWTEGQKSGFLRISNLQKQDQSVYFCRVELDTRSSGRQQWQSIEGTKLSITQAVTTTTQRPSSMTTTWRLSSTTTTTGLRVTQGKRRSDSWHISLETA

In experiment [3] the target is T3, human PILRB extracellular domain (recombinant) (human, UniProt Q9UKJ0 20-191).
T3 construct: also called hPILRB
The experiment is described as follows: SPR.

The target of experiment [4] is T4, cynomolgus monkey PILRA extracellular domain (recombinant) (cynomolgus monkey).
T4 construct: also called cynoPILRA; Cyno PILRA
The experiment is described as follows: SPR.

Experiment [5] concerns the target T5, human PILRA G78 on cells (human, UniProt Q9UKJ1 20-303). Put plainly: cell-based or functional assay.
Target sequence in this assay (Q9UKJ1 20-303 R78G limits assumed): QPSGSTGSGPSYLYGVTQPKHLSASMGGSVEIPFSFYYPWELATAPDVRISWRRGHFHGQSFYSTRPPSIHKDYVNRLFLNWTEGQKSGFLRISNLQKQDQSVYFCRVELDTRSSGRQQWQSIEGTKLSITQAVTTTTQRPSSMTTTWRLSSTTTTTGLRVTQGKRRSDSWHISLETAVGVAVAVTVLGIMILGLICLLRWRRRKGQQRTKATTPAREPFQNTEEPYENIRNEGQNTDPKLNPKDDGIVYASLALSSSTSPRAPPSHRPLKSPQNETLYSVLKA
Experiment [6] has as its target T6, human PILRA R78 on cells (human, UniProt Q9UKJ1 20-303). The experiment is described as follows: cell-based or functional assay.
Target sequence in this assay (Q9UKJ1 20-303 limits assumed): as the sequence (Q9UKJ1 20-303 R78G limits assumed) above, with G59R counted along it
Experiment [7] has as its target T5, human PILRA G78 on cells. The experiment is described as follows: flow cytometry on HEK293 cells expressing hPILRA G78.
Target sequence in this assay (Q9UKJ1 20-303 R78G limits assumed): as the sequence (Q9UKJ1 20-303 R78G limits assumed) above
The target in experiment [8] is T1, human PILRA G78 extracellular domain …. Put plainly: SPR, Biacore 8K; hPILRA ECD; antibody with wild-type Fc.
Protocol: (§1) Antibodies were captured on Biacore™ Series S CM5 sensor chips immobilized with mouse anti-human Fab (human Fab capture kit from GE Healthcare) followed by injections of serial 3-fold dilutions of recombinant ECD reagents at a flow rate of 30 μL/min. Each sample was analyzed using a 3-minute association followed by a 10-minute dissociation. After each injection, the sensor chip was regenerated using a 5 0 mM glycine pH2.0 regeneration buffer. A 1:1 Languir model of simultaneous fitting of kₒₙ and koff was used for kinetics analysis.
Characterization for binding affinities of the humanized antibodies to hPILRA ECD were measured by SPR using a Biacore 8K instrument (Table 7).
Experiment [9] deals with T6, human PILRA R78 on cells. The experiment is described as follows: flow cytometry on PILRA R78 expressing HEK293 cells (FIG. 1F).
Protocol: (§2) PILRA G78 or R78 overexpressing HEK293 cells were stained with NucBlue Live cell stain for 30 mins at RT. […] Cell lines were run in duplicate to account for intra-variability, for a total of N=3. The same protocol was used for CHO-K1 cells expressing hPILRA G78.
Experiment [10] addresses T5, human PILRA G78 on cells. Put plainly: flow cytometry (MFI), CHO-K1 cells expressing hPILRA G78, Alexa Fluor 647 anti-human IgG. On the technique in general: A flow cytometer gives signals particle by particle.
Protocol: as §2
Experiment [11] deals with T5, human PILRA G78 on cells. The experiment is described as follows: cell-based or functional assay. This is another data set of the same source.
Target sequence in this assay (Q9UKJ1 20-303 R78G limits assumed): as above
Experiment [12] addresses T3, human PILRB extracellular domain …. The experiment is described as follows: SPR, Biacore 8K, recombinant ECD.
Protocol: as §1
Experiment [13] addresses T5, human PILRA G78 on cells. The experiment is described as follows: flow cytometry on HEK293 cells expressing hPILRA G78. The source holds these as a separate data set.
Target sequence in this assay (Q9UKJ1 20-303 R78G limits assumed): as above
Protocol: Parental HEK293 cells were labeled with NucBlue Live ReadyProbes Reagent for 30 mins. […] Antibody binding to the cells was detected by FACS and median fluorescence intensity (MFI) was derived from data analysis performed with the FLOJO software (FIGS. 1A-1C).
Experiment [14] deals with T1, human PILRA G78 extracellular domain …. Put plainly: SPR, Biacore 8K; antibody captured via anti-human Fab, recombinant ECD injected; 1:1 fit.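 Also: CM5 sensor chip, ECD analyte in threefold dilution series at 30 µL/min, 3 min association and 10 min dissociation, kon and koff fitted simultaneously.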
Experiment [15] deals with T2, human PILRA R78 extracellular domain …. The description is as above.
The target in experiment [16] is T4, cynomolgus monkey PILRA extracellular …. The description is as above.
Experiment [17] deals with T6, human PILRA R78 on cells. Put plainly: flow cytometry on PILRA R78 expressing HEK293 cells (FIG. 1F); flow cytometry titration on HEK293 cells overexpressing PILRA R78.
Protocol: as §2
Experiment [18] concerns the target T7, human PILRB on cells (human, UniProt Q9UKJ0 20-227).
T7 construct: Expressed on CHO-K1 cells, or together with DAP12 on HEK293 cells (hPILRB-DAP12 OE HEK293); also called hPILRB; hPILRB-DAP12
Put plainly: flow cytometry on hPILRB-DAP12 OE HEK293 cells.
Protocol: Human PILRB-DAP12 OE HEK293 cells were stained with NucBlue Live cell stain for 30 mins at RT. […] Cell lines were run in duplicates to account for intra-variability, for a total of N=3.

Read-outs that look alike come from different tables or passages of the source.

A word on the Kd: it is the equilibrium constant for the complex coming apart. Broadly, the EC50 is the concentration giving half of the maximal effect. One may read the EC50 (read off the curve) as the concentration giving half of the maximal effect.

T1 sequence (Q9UKJ1 20-197 R78G limits assumed): as the sequence (Q9UKJ1 20-197 limits assumed) above, with R59G counted along it
T3 sequence (Q9UKJ0 20-191 limits assumed): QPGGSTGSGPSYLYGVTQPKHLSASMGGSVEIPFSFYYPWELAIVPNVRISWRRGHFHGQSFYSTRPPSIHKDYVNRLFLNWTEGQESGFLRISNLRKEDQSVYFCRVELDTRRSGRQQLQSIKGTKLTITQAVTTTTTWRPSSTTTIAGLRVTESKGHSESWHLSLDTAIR
T4 sequence (chain, as listed by the source limits assumed): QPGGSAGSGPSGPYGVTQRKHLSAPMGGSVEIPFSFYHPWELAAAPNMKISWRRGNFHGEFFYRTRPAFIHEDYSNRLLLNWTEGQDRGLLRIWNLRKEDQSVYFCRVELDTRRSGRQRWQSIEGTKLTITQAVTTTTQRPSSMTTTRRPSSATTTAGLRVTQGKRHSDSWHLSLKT
T7 sequence (Q9UKJ0 20-227 limits assumed): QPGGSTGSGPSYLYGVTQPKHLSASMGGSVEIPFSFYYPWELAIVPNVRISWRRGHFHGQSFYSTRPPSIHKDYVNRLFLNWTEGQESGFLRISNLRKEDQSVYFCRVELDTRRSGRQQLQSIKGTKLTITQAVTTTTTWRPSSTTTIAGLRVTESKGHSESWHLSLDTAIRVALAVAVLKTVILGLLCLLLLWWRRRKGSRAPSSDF

B1: Anti-PILRA antibody clone 35 (antibody, V domains shown)
VH: EVQLVQSGAEVKKPGASVKVSCKASGYTFTEYYMYWVRQAPGQGLELIGRIDPEDGGTDYVEKFKNRATLTADTSTSTAYLELSSLRSEDTAVYFCASTIRGTVFVYWGQGTLVTVSS
VL: DIQMTQSPSSLSASVGDRVTITCRPSEDIYNGLAWYQQKPGKSPKLLIYNANSLHTGVPSRFSGSGSGTDYTLTISSLQPEDFATYFCQQYYDYPLTFGQGTKVEIK
notes: Humanized; also called Ab.35
As for B1, the Kd came out at 1.4 nM in [1]; 25 nM in experiment [2]; 150 nM in [3]; 5.3 nM in experiment [4]; 1.71 nM in experiment [8]. For the same molecule, the “pSTAT3 S727 induction, EC50 (nM)” value in [5] was 23 nM; in [6], 10.6 nM. Besides, the “pSTAT3 S727 induction, Fold Over Background” value in experiment [5] amounted to 28.9 fold; in [6] it was 30.1 fold. For the same molecule, the “pSTAT3 Y705 induction, EC50 (nM)” value in experiment [5] was found to be 11.4 nM; in experiment [6], 6.19 nM. Further, the entries for the “pSTAT3 Y705 induction, Fold Over Background” value in experiment [5] and in experiment [6] were 35.5 fold and 41 fold, respectively. Also, the concentration giving a half-maximal response (EC50) was 12.8 nM in experiment [7] and 3.1 nM in experiment [9]. Further, in experiment [10], the 50% effective concentration (EC50 (read off the curve)) is around 10 nM.

B2: Anti-PILRA antibody clone 2 (antibody, human IgG1, kappa, L234A L235A, V domains shown)
VH: EVQLVESGGGLVQPGRSLRLSCAVSGFTFDDYAMHWVRQAPGKGLEWVSGFSWNSGSIGYPDSVKGRFTISRDNAKNSLYLQMNSLRAEDTAFYYCAKDKSISAAGRFDYWGQGTLVTVSS
VL: DIQMTQSPSSLSASVGDRVTITCQASRRINNYLNWYQQKPGKAPKLLIYDASNLETGVPSRFTGSGSGTDFTLTISSLQPEDIATYYCQQYDNLPLTFGGGTKVEIKR
notes: also called Ab; Clone 2; Ab.2
Regarding B2, the “pSTAT3 Y705 induction, EC50 (nM)” value in experiment [11] worked out at 1.45 nM. Besides, the “pSTAT3 Y705 induction, Fold Over Background” value in experiment [11] worked out at 16 fold. Further, the binding result in [12] was “no binding”. The EC50 in experiment [13] amounted to 12.5 nM; in experiment [17], 5.1 nM. In addition, the dissociation constant (Kd) in [14] came to 0.69 nM; in experiment [15], 270 nM; in experiment [16], 1.7 nM.

B3: PILRB binding positive control antibody (antibody, human IgG1, kappa, L234A L235A, V domains shown)
VH: QVQLQESGPGLVKPSGTLSLTCAVSGGSISSNHWWSWVRQPPGKGLEWIGEIYHYGTTDYNPSLQSRVTISVDKSKNQFSLKLTSVTAADTAVYFCARGLRDYYYYMDVWGKGTTVTVSS
VL: DIQMTQSPSSLSASVGDRVTITCRASQTISSYLNWYQQKPGKAPKLLIYAASSLQSGVPSRFSGSGFGTDFTLTISSLQPEDFATYYCQQSYSIPLTFGGGTKVEIKR
As for B3, in experiment [18], the EC50 was found to be 1.2 nM.
